Article PMC3335016, “Analysis of the Nse3/MAGE-Binding Domain of the Nse4/EID Family Proteins” (PLoS ONE, 2012)

Experiments:
Assay in all cases: ELISA; PEPSCAN ELISA; biotinylated EID2 peptides (400 nM) on streptavidin-coated plates; His-S-MAGEC2(129-339) 200–400 nM, 4°C overnight; anti-His detection
Conditions in all cases: both partners purified
EID2 peptide #11 (I207A) = molecular target: T1, EID2 peptide #11 (I207A) (human, I207A (stands in the printed letters), biotin, linked via the SGSG spacer)
T1 construct: source: synthetic peptide (Mimotopes)
T1 peptide: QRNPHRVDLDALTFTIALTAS

EID2 peptide #2 (R198A) = molecular target: T2, EID2 peptide #2 (R198A) (human, R198A (stands in the printed letters), biotin, linked via the SGSG spacer)
T2 construct: source: synthetic peptide (Mimotopes)
T2 peptide: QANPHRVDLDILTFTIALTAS

EID2 peptide #9 (L205A) = molecular target: T3, EID2 peptide #9 (L205A) (human, L205A (stands in the printed letters), biotin, linked via the SGSG spacer)
T3 construct: source: synthetic peptide (Mimotopes)
T3 peptide: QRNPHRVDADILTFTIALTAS

EID2 peptide #1 (Q197A) = molecular target: T4, EID2 peptide #1 (Q197A) (human, Q197A (stands in the printed letters), biotin, linked via the SGSG spacer)
T4 construct: source: synthetic peptide (Mimotopes)
T4 peptide: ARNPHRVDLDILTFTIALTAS

EID2 peptide #18 (T215A) = molecular target: T5, EID2 peptide #18 (T215A) (human, T215A (stands in the printed letters), biotin, linked via the SGSG spacer)
T5 construct: source: synthetic peptide (Mimotopes)
T5 peptide: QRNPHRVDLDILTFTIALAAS

EID2 peptide #16 (I212A) = molecular target: T6, EID2 peptide #16 (I212A) (human, I212A (stands in the printed letters), biotin, linked via the SGSG spacer)
T6 construct: source: synthetic peptide (Mimotopes)
T6 peptide: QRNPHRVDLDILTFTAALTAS

EID2 peptide #12 (L208A) = molecular target: T7, EID2 peptide #12 (L208A) (human, L208A (stands in the printed letters), biotin, linked via the SGSG spacer)
T7 construct: source: synthetic peptide (Mimotopes)
T7 peptide: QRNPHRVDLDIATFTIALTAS

EID2 peptide #17 (L214A) = molecular target: T8, EID2 peptide #17 (L214A) (human, L214A (stands in the printed letters), biotin, linked via the SGSG spacer)
T8 construct: source: synthetic peptide (Mimotopes)
T8 peptide: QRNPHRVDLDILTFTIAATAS

EID2 peptide #6 (R202A) = molecular target: T9, EID2 peptide #6 (R202A) (human, R202A (stands in the printed letters), biotin, linked via the SGSG spacer)
T9 construct: source: synthetic peptide (Mimotopes)
T9 peptide: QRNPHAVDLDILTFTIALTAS

EID2 peptide #10 (D206A) = molecular target: T10, EID2 peptide #10 (D206A) (human, D206A (stands in the printed letters), biotin, linked via the SGSG spacer)
T10 construct: source: synthetic peptide (Mimotopes)
T10 peptide: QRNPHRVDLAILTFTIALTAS

EID2 peptide #19 (S217A) = molecular target: T11, EID2 peptide #19 (S217A) (human, S217A (stands in the printed letters), biotin, linked via the SGSG spacer)
T11 construct: source: synthetic peptide (Mimotopes)
T11 peptide: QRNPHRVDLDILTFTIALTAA

EID2 peptide #14 (F210A) = molecular target: T12, EID2 peptide #14 (F210A) (human, F210A (stands in the printed letters), biotin, linked via the SGSG spacer)
T12 construct: source: synthetic peptide (Mimotopes)
T12 peptide: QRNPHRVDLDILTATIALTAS

B1: His-S-MAGEC2(129-339) (domain or fragment, human, UniProt Q9UBF1 129-339, looked up)
chain: GLPDSESSFTYTLDEKVAELVEFLLLKYEAEEPVTEAEMLMIVIKYKDYFPVILKRAREFMELLFGLALIEVGPDHFCVFANTVGLTDEGSDDEGMPENSLLIIILSVIFIKGNCASEEVIWEVLNAVGVYAGREHFVYGEPRELLTKVWVQGHYLEYREVPHSSPPYYEFLWGPRAHSESIKKKVLEFLAKLNNTVPSSFPSWYKDALKD
notes: source: E. coli C41, purified (His-TRAP column, FPLC)
EID2 peptide #11 (I207A)
  percent of wt binding affinity: ~30 % of wt
EID2 peptide #2 (R198A)
  percent of WT affinity: < 20 % of WT affinity
EID2 peptide #9 (L205A)
  percent of wt binding affinity: ~30 % of wt
EID2 peptide #1 (Q197A)
  percent of wt binding affinity: ~30 % of wt
EID2 peptide #18 (T215A)
  percent of wt binding affinity: ~30 % of wt
EID2 peptide #16 (I212A)
  percent of WT affinity: < 20 % of WT affinity
EID2 peptide #12 (L208A)
  percent of wt binding affinity: ~30 % of wt
EID2 peptide #17 (L214A)
  percent of WT affinity: < 20 % of WT affinity
EID2 peptide #6 (R202A)
  percent of WT affinity: < 20 % of WT affinity
EID2 peptide #10 (D206A)
  percent of wt binding affinity: ~30 % of wt
EID2 peptide #19 (S217A)
  percent of wt binding affinity: ~30 % of wt
EID2 peptide #14 (F210A)
  percent of WT affinity: < 20 % of WT affinity
